# B1: Cell division control protein 18 (Schizosaccharomyces pombe (strain ATCC 38366 / 972)), P41411 (parent)
# chain: MCETPIGCHTPRRCNRFIDSAALIDCTNKTNQREHSPSFSIEIPTTPSRKRTLASSHFQTPTKRIKYELGELQEEKTDLYPNFPAQLKENKKPKLPTTPQTPKTPKRTIQIVTPKSLNRTCNPVPFATRLLQSTPHRQLFPPTPSTPSTPSYNSTAKLSLRKSYRSAGVVGRENEKSIVESFFRQHLDANAGGALYVSGAPGTGKTVLLHNVLDHVVSDYPKVNVCYINCMTINEPKAIFEKIHSKIVKEEILENEDHHINFQCELESHFTQSANELYNPVIIVLDEMDHLIAREQQVLYTLFEWPSRPTSRLILVGIANALDMTDRFLPRLRTKHITPKLLSFTPYTAQEISTIIKARLKTAATTSEKNNPFTPIKSISEVSDDSINVVSQHADETPFIHPAAIELCARKVAASSGDLRKALDICRHAIELAEREWKAQHDNTLSSVDIPRASIAHVVRATSAMSQSASARLKNLGLQQKAILCTLVVCEKTSLSVADVFEKYSSLCLRDRLIYPLTSSEFCDVANSLETLAIIRLRTKQRNGKPQDRIISLLVPEMDVITAVGDIGTLKRFFDRR
# partner: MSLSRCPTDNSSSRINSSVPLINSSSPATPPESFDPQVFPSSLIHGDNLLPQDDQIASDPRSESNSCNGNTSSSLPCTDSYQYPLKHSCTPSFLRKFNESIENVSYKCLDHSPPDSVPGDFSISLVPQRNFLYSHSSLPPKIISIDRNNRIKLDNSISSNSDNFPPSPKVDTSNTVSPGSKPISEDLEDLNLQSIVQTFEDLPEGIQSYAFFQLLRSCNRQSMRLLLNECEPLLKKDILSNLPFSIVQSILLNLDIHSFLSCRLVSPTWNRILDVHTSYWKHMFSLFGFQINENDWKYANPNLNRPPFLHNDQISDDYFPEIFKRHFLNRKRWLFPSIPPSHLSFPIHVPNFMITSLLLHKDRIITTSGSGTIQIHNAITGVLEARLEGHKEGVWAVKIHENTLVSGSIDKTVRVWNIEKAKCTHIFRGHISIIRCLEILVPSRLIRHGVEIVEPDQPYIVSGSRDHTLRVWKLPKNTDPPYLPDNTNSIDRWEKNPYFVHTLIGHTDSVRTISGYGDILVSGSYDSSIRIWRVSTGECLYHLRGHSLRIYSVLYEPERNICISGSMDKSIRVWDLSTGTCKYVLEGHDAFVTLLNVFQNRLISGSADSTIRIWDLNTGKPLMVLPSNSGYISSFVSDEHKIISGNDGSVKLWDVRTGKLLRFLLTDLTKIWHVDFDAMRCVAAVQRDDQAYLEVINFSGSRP
# Variants of: B1
# Settings: with pop2_schpo pop2, O14170
row,effect of a mutation on the interaction,Variant
1,disrupting interaction,T4A;T10A;T46A;T60A;T101A;T104A
